According to patent US20140271675A1 (Eli Lilly, published 2014):

Key:
[1] = molecular target: hVEGFR1-Fc (R&D 321-fl 050/cf) (human) (UniProt P17948); assay: competition ELISA, coated hVEGFR1-Fc, competitor biotin-hVEGFA-165 2 nM; control Ron antibody 16.667 µg/ml
[2] = molecular target: hVEGFR1-Fc (R&D 321-fl 050/cf) (human) (UniProt P17948); assay: competition ELISA, coated hVEGFR1-Fc, competitor biotin-hVEGFA-165 2 nM; control Ron antibody 1.6667 µg/ml
[3] = molecular target: hVEGFR1-Fc (R&D 321-fl 050/cf) (human) (UniProt P17948); assay: competition ELISA, coated hVEGFR1-Fc, competitor biotin-hVEGFA-165 2 nM; control Ron antibody 0.0023 µg/ml
[4] = molecular target: hVEGFR1-Fc (R&D 321-fl 050/cf) (human) (UniProt P17948); assay: competition ELISA, coated hVEGFR1-Fc, competitor biotin-hVEGFA-165 2 nM; control Ron antibody 0.069 µg/ml
[5] = molecular target: hVEGFR1-Fc (R&D 321-fl 050/cf) (human) (UniProt P17948); assay: competition ELISA, coated hVEGFR1-Fc, competitor biotin-hPLGF1 2 nM; control Ron antibody 0.069 µg/ml
[6] = molecular target: hVEGFR1-Fc (R&D 321-fl 050/cf) (human) (UniProt P17948); assay: competition ELISA, coated hVEGFR1-Fc, competitor biotin-hVEGFA-165 2 nM; control Ron antibody 0.1852 µg/ml
[7] = molecular target: hVEGFR1-Fc (R&D 321-fl 050/cf) (human) (UniProt P17948); assay: competition ELISA, coated hVEGFR1-Fc, competitor biotin-hPLGF1 2 nM; control Ron antibody 0.206 µg/ml
[8] = molecular target: hVEGFR1-Fc (R&D 321-fl 050/cf) (human) (UniProt P17948); assay: competition ELISA, coated hVEGFR1-Fc, competitor biotin-hVEGFA-165 2 nM; control Ron antibody 50.000 µg/ml
[9] = molecular target: hVEGFR1-Fc (R&D 321-fl 050/cf) (human) (UniProt P17948); assay: competition ELISA, coated hVEGFR1-Fc, competitor biotin-hVEGFA-165 2 nM; control Ron antibody 0.023 µg/ml
[10] = molecular target: hVEGFR1-Fc (R&D 321-fl 050/cf) (human) (UniProt P17948); assay: competition ELISA, coated hVEGFR1-Fc, competitor biotin-hPLGF1 2 nM; control Ron antibody 5.556 µg/ml
[11] = molecular target: hVEGFR1-Fc (R&D 321-fl 050/cf) (human) (UniProt P17948); assay: competition ELISA, coated hVEGFR1-Fc, competitor biotin-hPLGF1 4 nM; control Ron antibody 0.0069 µg/ml
[12] = molecular target: hVEGFR1-Fc (R&D 321-fl 050/cf) (human) (UniProt P17948); assay: competition ELISA, coated hVEGFR1-Fc, competitor biotin-hVEGFA-165 2 nM; control Ron antibody 5.556 µg/ml
[13] = molecular target: hVEGFR1-Fc (R&D 321-fl 050/cf) (human) (UniProt P17948); assay: competition ELISA, coated hVEGFR1-Fc, competitor biotin-hVEGFA-165 2 nM; control Ron antibody 0.206 µg/ml
[14] = molecular target: hVEGFR1-Fc (R&D 321-fl 050/cf) (human) (UniProt P17948); assay: competition ELISA, coated hVEGFR1-Fc, competitor biotin-hPLGF1 2 nM; control Ron antibody 1.852 µg/ml
[15] = molecular target: hVEGFR1-Fc (R&D 321-fl 050/cf) (human) (UniProt P17948); assay: competition ELISA, coated hVEGFR1-Fc, competitor biotin-hPLGF1 2 nM; control Ron antibody 16.667 µg/ml
[16] = molecular target: hVEGFR1-Fc (R&D 321-fl 050/cf) (human) (UniProt P17948); assay: competition ELISA, coated hVEGFR1-Fc, competitor biotin-hPLGF1 2 nM; control Ron antibody 0.023 µg/ml
[17] = molecular target: hVEGFR1-Fc (R&D 321-fl 050/cf) (human) (UniProt P17948); assay: competition ELISA, coated hVEGFR1-Fc, competitor biotin-hVEGFA-165 2 nM; control Ron antibody 0.617 µg/ml
[18] = molecular target: hVEGFR1-Fc (R&D 321-fl 050/cf) (human) (UniProt P17948); assay: competition ELISA, coated hVEGFR1-Fc, competitor biotin-hPLGF1 4 nM; control Ron antibody 1.6667 µg/ml
[19] = molecular target: hVEGFR1-Fc (R&D 321-fl 050/cf) (human) (UniProt P17948); assay: competition ELISA, coated hVEGFR1-Fc, competitor biotin-hVEGFA-165 2 nM; control Ron antibody 0.5556 µg/ml
[20] = molecular target: hVEGFR1-Fc (R&D 321-fl 050/cf) (human) (UniProt P17948); assay: competition ELISA, coated hVEGFR1-Fc, competitor biotin-hPLGF1 4 nM; control Ron antibody 5.0000 µg/ml
[21] = molecular target: hVEGFR1-Fc (R&D 321-fl 050/cf) (human) (UniProt P17948); assay: competition ELISA, coated hVEGFR1-Fc, competitor biotin-hPLGF1 4 nM; control Ron antibody 0.5556 µg/ml
[22] = molecular target: hVEGFR1-Fc (R&D 321-fl 050/cf) (human) (UniProt P17948); assay: competition ELISA, coated hVEGFR1-Fc, competitor biotin-hVEGFA-165 2 nM; control Ron antibody 5.0000 µg/ml
[23] = molecular target: hVEGFR1-Fc (R&D 321-fl 050/cf) (human) (UniProt P17948); assay: competition ELISA, coated hVEGFR1-Fc, competitor biotin-hPLGF1 4 nM; control Ron antibody 0.0617 µg/ml
[24] = molecular target: hVEGFR1-Fc (R&D 321-fl 050/cf) (human) (UniProt P17948); assay: competition ELISA, coated hVEGFR1-Fc, competitor biotin-hVEGFA-165 2 nM; control Ron antibody 0.0069 µg/ml

Chain of hVEGFR1-Fc (R&D 321-fl 050/cf) (human) (P17948 27-758): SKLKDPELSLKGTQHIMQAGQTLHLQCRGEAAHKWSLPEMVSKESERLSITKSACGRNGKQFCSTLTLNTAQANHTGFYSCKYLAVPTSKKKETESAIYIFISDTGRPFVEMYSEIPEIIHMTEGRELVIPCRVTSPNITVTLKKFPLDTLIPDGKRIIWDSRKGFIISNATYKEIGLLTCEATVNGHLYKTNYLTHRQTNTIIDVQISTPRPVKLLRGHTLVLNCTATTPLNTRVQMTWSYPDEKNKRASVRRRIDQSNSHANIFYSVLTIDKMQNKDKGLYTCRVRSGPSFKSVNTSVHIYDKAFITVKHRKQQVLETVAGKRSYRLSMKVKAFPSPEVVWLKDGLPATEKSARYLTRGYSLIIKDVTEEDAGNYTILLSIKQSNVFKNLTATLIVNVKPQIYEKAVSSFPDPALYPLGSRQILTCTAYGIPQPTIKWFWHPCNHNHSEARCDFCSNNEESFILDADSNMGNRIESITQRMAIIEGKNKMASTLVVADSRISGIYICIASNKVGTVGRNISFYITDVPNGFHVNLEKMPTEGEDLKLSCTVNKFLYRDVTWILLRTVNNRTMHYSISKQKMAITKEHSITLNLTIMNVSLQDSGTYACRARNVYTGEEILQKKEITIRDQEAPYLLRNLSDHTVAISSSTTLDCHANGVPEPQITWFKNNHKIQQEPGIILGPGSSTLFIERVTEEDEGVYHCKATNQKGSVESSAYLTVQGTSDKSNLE

OD560 (bound biotinylated VEGF-A) [1]: 0.566 OD | OD560 (bound biotinylated VEGF-A) [2]: 1.42 OD | OD560 (bound biotinylated VEGF-A) [3]: 1.54 OD | OD560 (bound biotinylated VEGF-A) [4]: 0.519 OD | OD560 (bound biotinylated PlGF) [5]: 0.283 OD | OD560 (bound biotinylated VEGF-A) [6]: 1.46 OD | OD560 (bound biotinylated PlGF) [7]: 0.315 OD | OD560 (bound biotinylated VEGF-A) [8]: 0.515 OD | OD560 (bound biotinylated VEGF-A) [9]: 0.506 OD | OD560 (bound biotinylated PlGF) [10]: 0.298 OD | OD560 (bound biotinylated PlGF) [11]: 0.37 OD | OD560 (bound biotinylated VEGF-A) [12]: 0.535 OD | OD560 (bound biotinylated VEGF-A) [13]: 0.554 OD | OD560 (bound biotinylated PlGF) [14]: 0.3 OD | OD560 (bound biotinylated PlGF) [15]: 0.304 OD | OD560 (bound biotinylated PlGF) [16]: 0.296 OD | OD560 (bound biotinylated VEGF-A) [17]: 0.535 OD | OD560 (bound biotinylated PlGF) [18]: 0.432 OD | OD560 (bound biotinylated VEGF-A) [19]: 1.47 OD | OD560 (bound biotinylated PlGF) [20]: 0.407 OD | OD560 (bound biotinylated PlGF) [21]: 0.436 OD | OD560 (bound biotinylated VEGF-A) [22]: 1.51 OD | OD560 (bound biotinylated PlGF) [23]: 0.408 OD | OD560 (bound biotinylated VEGF-A) [24]: 1.53 OD
Substance: control Ron antibody (R&D MAB691)
